We go through four molecules from PMC7591920 (2020).

The chains are these.
T1: mouse TEAD4(210–427), as purified (SPR) (mouse, UniProt Q62296 210-427)
T1 chain: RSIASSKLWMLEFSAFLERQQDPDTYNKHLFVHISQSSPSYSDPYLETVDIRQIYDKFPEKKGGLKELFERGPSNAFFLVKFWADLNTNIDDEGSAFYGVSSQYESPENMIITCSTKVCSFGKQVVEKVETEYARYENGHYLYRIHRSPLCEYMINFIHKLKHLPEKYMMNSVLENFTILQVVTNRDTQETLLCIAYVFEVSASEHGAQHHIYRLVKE

T2: GST-hTEAD1(209–426) (human, UniProt P28347 209-426)
T2 chain: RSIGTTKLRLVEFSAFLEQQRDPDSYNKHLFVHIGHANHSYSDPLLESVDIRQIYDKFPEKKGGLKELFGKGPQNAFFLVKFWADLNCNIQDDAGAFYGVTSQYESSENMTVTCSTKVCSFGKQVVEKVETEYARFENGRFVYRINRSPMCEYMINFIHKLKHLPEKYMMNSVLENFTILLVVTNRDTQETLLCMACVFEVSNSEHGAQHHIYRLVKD

B1: macrocyclic two-helix motif peptide 4A (lactam 235–250, 5 crosslinking atoms) (peptide)
chain: SVDDHFAKALGDTWLQIKAA
modifications: lactam (positions not given here); not fully specified (bridges); also: lactam crosslink of 5 atoms, residue identities at the bridge ends not given here
B2: macrocyclic two-helix motif peptide 4B (lactam 235–250, 6 crosslinking atoms) (peptide)
chain: SVDDHFAKALGDTWLQIKAA
modifications: lactam (positions not given here); not fully specified (bridges); also: lactam crosslink of 6 atoms, residue identities at the bridge ends not given here

Bridge positions count the residues as written; N and C are the ends. Ends that are not written are not given here.

For the first assay, the target named is T1, mouse TEAD4(210–427), as purified (SPR). Put plainly: SPR.
The Kd is the free concentration of one partner at which half of the binding sites on the other are occupied at equilibrium, for simple one-to-one binding. Higher therefore signals a looser complex. SVEDHFAKALGDTWLQIKAA (lactam (positions not given here); not fully specified (bridges)) [macrocyclic two-helix motif peptide 4D (lactam 235–250, seven-atom crosslink)] yielded an equilibrium dissociation constant (Kd) of 1 µM.

B1 had a dissociation constant (Kd) of 11 µM.

B2: binding was characterised by a dissociation constant (Kd) of 11 µM.

For SVDDHFAKALGDTWLQIKAA (lactam 3-18) [macrocyclic two-helix motif peptide 4C (lactam 235–250, seven-atom crosslink)], binding was characterised by a dissociation constant (Kd) of 3.2 µM.

A further assay concerns the target T2, GST-hTEAD1(209–426). Briefly: SPR.
SVEDHFAKALGDTWLQIKAA (lactam (positions not given here); not fully specified (bridges)) [macrocyclic two-helix motif peptide 4D (lactam 235–250, seven-atom crosslink)] gave a Kd of 1.5 µM.

In turn, B1 yielded a Kd of 15 µM.

For B2, binding was put at a Kd of 14 µM.

SVDDHFAKALGDTWLQIKAA (lactam 3-18) [macrocyclic two-helix motif peptide 4C (lactam 235–250, seven-atom crosslink)] returned a Kd of 4.8 µM.
